The results in this text go back to the supplement of paper PMC7877785.

± gives the uncertainty stated by the source.

This data set in a line: self-splicing fitness, log relative to wild type (ln ratio); higher = more splicing; Tetrahymena group I intron in knt gene, E. coli kanamycin selection, DiMSum; sequences stand for … in CUCUCU…GGAGGGAAAAGUUAUCAGGCAUGCACCUGGUAGCUAGUCUUUAAACCAAUAGAUUGCAUCGGUUUAAAAGGCAAGACCGUCAAAUUGCGGGAAAGGGGUCAACAGCCGUUCAGUACCAAGUCUCAGGGGAAACUUUGAGAUGGCCUUGCAAAGGGUAUGGUAAUAAGCUGACGGACAUGGUCCUAACCACGCAGCCAAGUCCUAAGUCAACAGAUCUUCUGUUGAUAUGGAUGCAGUUCACAGACUAAAUGUCGGUCGGGGAAGAUGUAUUCUUCUCAUAAGAUAUAGUCGGACCUCUCCUUAAUGGGAGCUAGCGGAUGAAGUGAUGCAACACUGGAGCCGCUGGGAACUAAUUUGUAUGCGAAAGUAUAUUGAUUAGUUUUGGAGUACUCGUGGUCG
A digest of the protocol: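 Pooled colonies went to amplicon sequencing on an Illumina HiSeq 2500 after six replicate transformations. The plates were LB agar with 100 μg/mL carbenicillin, 50 μM IPTG and 0.2% rhamnose, with or without 25 μg/mL kanamycin, incubated overnight at 37°C or 30°C. The E. coli BL21(DE3) library had all eight P1ex-region intron nucleotides randomised, the intron placed in the knt kanamycin-resistance gene on pET-22b(+). DiMSum fitness is the error-weighted combination of replicate fold changes, kanamycin against none, normalised to wild type.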

For GAAUAGCAAUAUUACGUGAA, the “self-splicing fitness (ln)” value reads like this: (30 °C) -1.74 ± 0.092; (37 °C) -0.782 ± 0.11.

As to GAAUAGCAAUAUUACGUGAG, the “self-splicing fitness (ln)” value reads like this: (30 °C) -1.19 ± 0.057; (37 °C) -0.737 ± 0.1.

Take GACAAGCAAUAUUACGAACA: the “self-splicing fitness (ln)” value was -1.52 ± 0.13 (30 °C) and -0.000414 ± 0.11 (37 °C).

Turning to GACAAGCAAUAUUACGAACU, the “self-splicing fitness (ln)” value (30 °C) was -0.214 ± 0.066 and the “self-splicing fitness (ln)” value (37 °C) was determined as 0.284 ± 0.092.

On to GACAAGCAAUAUUACGACAC, for which the “self-splicing fitness (ln)” value runs as follows: (30 °C) -0.384 ± 0.071; (37 °C) 0.0329 ± 0.11.

Regarding GACAAGCAAUAUUACGAUCU, the “self-splicing fitness (ln)” value runs as follows: (30 °C) -0.884 ± 0.079; (37 °C) -0.309 ± 0.097.

GACAAGCAAUAUUACGCCAC: for the setting “37 °C”, the “self-splicing fitness (ln)” value is -2.64 ± 0.5.

Take GACAAGCAAUAUUACGCCCG: the “self-splicing fitness (ln)” value by setting is: (30 °C) -1.26 ± 0.17; (37 °C) -0.702 ± 0.37.

Consider GACAAGCAAUAUUACGCUGA, for which the “self-splicing fitness (ln)” value is -2.53 ± 0.13 (30 °C) and -1.55 ± 0.11 (37 °C).

With GACAAGCAAUAUUACGCUUA, the “self-splicing fitness (ln)” value (30 °C) is -1.52 ± 0.098 and the “self-splicing fitness (ln)” value (37 °C) is -0.863 ± 0.1.

Regarding GACAAGCAAUAUUACGGACU, the “self-splicing fitness (ln)” value reads like this: (30 °C) -1.17 ± 0.075; (37 °C) 0.137 ± 0.087.

As for GACAAGCAAUAUUACGGAUA, the “self-splicing fitness (ln)” value was -1.52 ± 0.12 (30 °C) and -1.47 ± 0.12 (37 °C).

Take GACAAGCAAUAUUACGGCAG: the “self-splicing fitness (ln)” value is, setting by setting: (30 °C) -4.14 ± 0.31; (37 °C) -3.08 ± 0.35.

GACAAGCAAUAUUACGGCAU: the “self-splicing fitness (ln)” value was -0.363 ± 0.067 (30 °C) and 0.227 ± 0.088 (37 °C).

Consider GACAAGCAAUAUUACGGCUC, for which the “self-splicing fitness (ln)” value was -0.105 ± 0.07 (30 °C) and 0.0794 ± 0.1 (37 °C).

Turning to GACAAGCAAUAUUACGGGAU, the “self-splicing fitness (ln)” value runs as follows: (30 °C) -2.65 ± 0.14; (37 °C) -0.632 ± 0.12.

Turning to GACAAGCAAUAUUACGGGCA, the “self-splicing fitness (ln)” value runs as follows: (30 °C) -0.702 ± 0.049; (37 °C) -0.0944 ± 0.056.

As for GACAAGCAAUAUUACGGGCG, the “self-splicing fitness (ln)” value (30 °C) was -1.27 ± 0.061 and the “self-splicing fitness (ln)” value (37 °C) was -0.455 ± 0.072.

For the sequence GACAAGCAAUAUUACGUCUU, the “self-splicing fitness (ln)” value runs as follows: (30 °C) -2.08 ± 0.082; (37 °C) -1.05 ± 0.085.

As for GACAAGCAAUAUUACGUGUC, the “self-splicing fitness (ln)” value was -4.44 ± 0.28 (30 °C) and -3.22 ± 0.37 (37 °C).

As for GACAAGCAAUAUUACGUUCG, the “self-splicing fitness (ln)” value was -2.99 ± 0.19 (30 °C) and -1.61 ± 0.12 (37 °C).

Regarding GACCAGCAAUAUUACGACUG, the “self-splicing fitness (ln)” value reads like this: (30 °C) -2.86 ± 0.15; (37 °C) -2.12 ± 0.17.

Consider GACCAGCAAUAUUACGACUU, for which the “self-splicing fitness (ln)” value came out at 0.432 ± 0.065 (30 °C) and 0.163 ± 0.076 (37 °C).

GACCAGCAAUAUUACGAUUA: the “self-splicing fitness (ln)” value (30 °C) is -0.607 ± 0.056 and the “self-splicing fitness (ln)” value (37 °C) was -0.446 ± 0.072.

Take GACCAGCAAUAUUACGCAAC: the “self-splicing fitness (ln)” value by setting is: (30 °C) -1.35 ± 0.082; (37 °C) -0.681 ± 0.1.

In the case of GACCAGCAAUAUUACGCCGU, the “self-splicing fitness (ln)” value runs as follows: (30 °C) -0.962 ± 0.075; (37 °C) -0.0427 ± 0.08.

In the case of GACCAGCAAUAUUACGCGUG, the “self-splicing fitness (ln)” value was -0.273 ± 0.041 (30 °C) and 0.216 ± 0.059 (37 °C).

In the case of GACCAGCAAUAUUACGCUGG, the “self-splicing fitness (ln)” value runs as follows: (30 °C) -3.16 ± 0.13; (37 °C) -2.95 ± 0.21.

Regarding GACCAGCAAUAUUACGCUUG, the “self-splicing fitness (ln)” value is, setting by setting: (30 °C) -0.638 ± 0.089; (37 °C) -0.56 ± 0.11.

Regarding GACCAGCAAUAUUACGGACU, the “self-splicing fitness (ln)” value is -1.55 ± 0.082 (30 °C) and -0.595 ± 0.1 (37 °C).

Regarding GACCAGCAAUAUUACGGAGA, the “self-splicing fitness (ln)” value is -1.25 ± 0.078 (30 °C) and -0.461 ± 0.088 (37 °C).

As for GACCAGCAAUAUUACGGAGC, the “self-splicing fitness (ln)” value is -0.563 ± 0.077 (30 °C) and -0.0895 ± 0.11 (37 °C).

Regarding GACCAGCAAUAUUACGGAUG, the “self-splicing fitness (ln)” value (30 °C) is -0.62 ± 0.056 and the “self-splicing fitness (ln)” value (37 °C) was determined as 0.157 ± 0.077.

In the case of GACCAGCAAUAUUACGGCUA, the “self-splicing fitness (ln)” value is 0.142 ± 0.055 (30 °C) and 0.0036 ± 0.068 (37 °C).

As to GACCAGCAAUAUUACGGCUG, the “self-splicing fitness (ln)” value is -3.68 ± 0.18 (30 °C) and -3.41 ± 0.25 (37 °C).

Take GACCAGCAAUAUUACGGGUC: the “self-splicing fitness (ln)” value by setting is: (30 °C) -4.01 ± 0.21; (37 °C) -3.33 ± 0.22.

As to GACCAGCAAUAUUACGUAAA, the “self-splicing fitness (ln)” value runs as follows: (30 °C) 0.0993 ± 0.067; (37 °C) -0.108 ± 0.094.
